We go through 1 molecule from US20130324477A1 (L OREAL, published 2013).

The assay deals with T1, filaggrin-2 (FLG2) fragment identified as prey in the double-hybrid screens, corresponding to amino acids … (human, UniProt Q5D862 2-213).
T1 construct: range 2-213; Prey
T1 sequence (looked up): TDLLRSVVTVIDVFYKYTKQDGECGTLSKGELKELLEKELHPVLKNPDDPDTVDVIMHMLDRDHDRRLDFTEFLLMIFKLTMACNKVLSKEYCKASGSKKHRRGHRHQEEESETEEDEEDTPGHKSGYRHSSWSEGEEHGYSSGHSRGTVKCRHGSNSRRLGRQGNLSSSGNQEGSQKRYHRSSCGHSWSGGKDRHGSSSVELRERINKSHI
Nature of the assay: supplementary double-hybrid experiments.

B1: N-terminal fragment of SASPase-28 (amino acids 11-86, SEQ ID No.: 16) (peptide)
chain: RQHAFVPEPFDGANVVPNLWLHSFEVINDLNHWDHITKLRFLKESLRGEALGVYNRLSPQDQGDYGTVKEALLKAFG
As for B1, the binding result is on record as “binds”.
